These results are taken from patent US7276644.

This assay deals with actin of the acto-HMM complexes in Example II. The assay is described as follows: stopped-flow; effects of ADP on ATP-mediated dissociation of acto-HMM.
On to “HMM from pig β cardiac myosin heavy chain (from UniProt P79293 1-1282) (enzyme)”, for which the maximum rate constant for dissociation of acto-HMM (ATP-mediated, with ADP) worked out at 35 s⁻¹. “HMM from rat β cardiac myosin heavy chain (hypothyroid rat) (from UniProt P02564 1-1282) (enzyme)” yielded a maximum rate constant for dissociation of acto-HMM (ATP-mediated, with ADP) of 140 s⁻¹. The result for “rat α cardiac myosin HMM (chymotryptic heavy meromyosin of native hyperthyroid rat ventricular α-myosin) (from UniProt P02563 1-1285) (enzyme)” reads 600 s⁻¹.
